Measured values: US8802826B2, “Anti-clusterin antibodies and antigen binding fragments and their use to reduce tumor volume” (Alethia Biotherapeutics Inc., priority 2009, dated 2014)
Each block holds one molecule with its values, some of them ahead of it.

Legend:
[1] = test system: PC-3 prostate cancer cells; experiment: PC-3 prostate tumor xenograft; type: in vivo, SCID mice; settings: single injection 10 mg/kg i.p. on day 5
Procedure: PC-3 prostate cancer cells (2×10^6) were implanted s.c. into SCID mice and allowed to grow until the tumor sizes were approximately 100 mm^3. Tumors were measured bi-weekly with a digital caliper and tumor volumes were calculated as L×W×H. Each group contained 8 animals that were randomized prior to the beginning off the treatments. The results were expressed as mm^3±SEM.
A second prostate cancer model study was conducted in a different tumor model by implanting PC-3 prostate cancer cells. PC-3 cells are also hormone-insensitive but are documented as being slightly more invasive than the DU145 cells. As was described above, the cells were implanted sub-cutaneously in SCID mice and treatments were initiated when the tumors reached a volume of approximately 100 mm^3 (designated day 1). The h16B5 injections were administered i.p. on day 1 at 5 mg/kg and continued twice per week thereafter whereas a single TxT injection at 10 mg/kg was administered i.p. on day 5.

[2] = molecular target: T1, human clusterin (recombinant monomeric clusterin) (Homo sapiens, UniProt P10909); experiment: BIAcore kinetic analysis of antibody binding to immobilized clusterin; settings: for KD of the interaction with immobilized human clusterin: stated in words
T1 construct: Recombinant monomeric clusterin was immobilized on a CM3 chip with normal amine coupling method
Procedure: The purpose of these investigations is to determine the kinetics parameters of anti-clusterin antibodies. In particular, to determine whether the humanization of the 16B5 and 21B12 anti-clusterin monoclonal antibody affects the kinetics parameters of its binding to human clusterin. To this end, a kinetic analysis method was developed using the BIAcore 3000. Human clusterin was immobilized on a sensor chip. Full length antibodies or Fab fragments were injected and allowed to interact with the immobilized clusterin. This example described the exemplary antibody 16B5 but the 21B12 exemplary antibody was prepared and tested in a similar manner.
HBST (10 mM Hepes pH 7.4, 135 mM NaCl, 3.4 mM EDTA, 0.005% Tween 20) was used as running buffer for all BIAcore experiments. Recombinant monomeric clusterin was immobilized on a CM3 chip with normal amine coupling method at a flow of 5 μl/min. Surface was activated with 35 μl of a mixture of 50 mM NHS/0.2M EDC. Clusterin in 10 mM Na-acetate pH 4.5 was injected until a desired amount was captured (below 60RU). Unreacted esters were deactivated with 35 μL1 of 1M ethanolamine hydrochloride-NaOH pH8.5. A control surface was prepared by injecting NHS/EDC and ethanolamine in the same manner.
Kinetics analysis was conducted at a flow of 50 μl/min. Full length antibodies (mouse or humanized) or Fab were diluted in HBST. Concentration range was from 1.953-31.25 nM for the full length antibodies and 15.625-250 nM for the Fab. Each concentration was injected over the clusterin and a control surface for 5 min followed with a 5 min dissociation wash. The clusterin surface was regenerated between each antibody injection with 50 μl of 20 mM HCl.

EMT6 cells = experiment: wound healing (scratch) migration assay; type: cell-based, mouse; settings: 37 C for 15 h
Procedure: FIG. 4. h16B5 blocks the migration of cancer cell lines.
To test the activity of anti-clusterin antibodies against cancer cell migration, a standard wound healing, or scratch assay, was used. In this assay, EMT6 cells, a mouse mammary carcinoma cell line, was plated at high density and subjected to wounding by the creation of a scratch in the cell layer. At time 0, a wide denuded area is evident that quickly fills up after incubation of the cells at 37 C for 15 h (see upper left-hand panels in FIG. 4).

T1 sequence (P10909 23-449): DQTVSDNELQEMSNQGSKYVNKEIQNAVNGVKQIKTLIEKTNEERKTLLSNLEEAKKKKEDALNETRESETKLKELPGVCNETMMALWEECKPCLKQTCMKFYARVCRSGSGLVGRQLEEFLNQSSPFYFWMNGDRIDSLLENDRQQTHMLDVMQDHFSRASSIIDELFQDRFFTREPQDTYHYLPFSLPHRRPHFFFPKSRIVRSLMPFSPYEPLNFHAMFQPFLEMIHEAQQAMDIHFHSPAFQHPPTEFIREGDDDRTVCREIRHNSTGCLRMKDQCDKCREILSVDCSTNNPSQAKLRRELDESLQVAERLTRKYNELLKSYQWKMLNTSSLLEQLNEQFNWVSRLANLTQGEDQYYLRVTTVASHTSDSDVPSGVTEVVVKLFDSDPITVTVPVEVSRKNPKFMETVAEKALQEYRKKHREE

Molecule: CC(=O)O[C@@]12CO[C@@H]1C[C@H](O)[C@@]1(C)C(=O)[C@H](O)C3=C(C)[C@@H](OC(=O)[C@H](O)[C@@H](NC(=O)OC(C)(C)C)c4ccccc4)C[C@@](O)([C@@H](OC(=O)c4ccccc4)[C@H]21)C3(C)C [TxT, taxotere, reference compound]
- time after injection at which tumors appeared to recover from treatment [1]: approximately 18 days

B1: HH16B5 Fab: Fab fragment of humanized 16B5 prepared by papain digestion (antibody, V domains shown)
VH: QVQLVQSGAEVKKPGATVKISCKVSGFNIKDIYMHWVQQAPGKGLEWMGRIDPAYGNTKYDPKFQGRVTITADTSTDTAYMELSSLRSEDTAVYYCARRYDTAMDYWGQGTLVTVSS
VL: DIVMTQSPDSLAVSLGERATINCKSSQSLLNSRTRKNYLAWYQQKPGQPPKLLIYWASTRESGVPDRFSGSGSGTDFTLTISSLQAEDVAVYYCKQSYNLWTFGQGTKLEIK
- kinetics parameters compared with the parent mouse antibody ([2]; full length vs full length, Fab vs Fab): slightly better

Further lines, with some results ahead:

- KD of the interaction with immobilized human clusterin [2]: low nM range
B2: mouse 21B12: parent mouse anti-clusterin monoclonal antibody, VL SEQ ID NO.:33, VH SEQ ID NO.:37 (antibody, V domains shown)
VH: QIQLVQSGPELKKPGETVKISCKASGYTFTNYGMHWVKQAPGKGLKWMGWINTYTGEPTYADDFKGRFAFSLETSASTAYLQINNLKNEDTATYFCARDGFLYFFDYWGQGTTLTVSS
VL: DIVMSQSPSSLAVSVGEKVTMSCKSSQSLLYSSNQKNYLAWYQQRPGQSPKLLIYWASTRESGVPDRFTGSGSGTDFTLTISSVKAEDLAVYYCQQYYIYPRTFGGGTKLEIK
modifications: murine 21B12 VH; murine 21B12 VL

- KD of the interaction with immobilized human clusterin [2]: low nM range
B3: mouse 16B5: parent mouse anti-clusterin monoclonal antibody, VL SEQ ID NO.:25, VH SEQ ID NO.:29 (antibody, V domains shown)
VH: EVQLQQSGAELVKPGASVRLSCTTSGFNIKDIYMHWVKQRPEQGLEWIGRIDPAYGNTKYDPKFQGKATITADTSSNTAYLQLSSLTSEDTAVYYCARRYDTAMDYWGQGTSVTVSS
VL: DIVMSQSPSSLAVSAGEKVTMSCKSSQSLLNSRTRKNYLAWYQQKPGQSPKLLIYWASTRESGVPDRFTGSGSGTDFTLTISSVQAEDLAVYYCKQSYNLWTFGGGTKLEFK
modifications: murine 16B5 VH; murine 16B5 VL
- migration of cells into the denuded area (EMT6 cells): reduced number of cells in the denuded area
